Experimental data published in US20260263646A1 (ENLAZA THERAPEUTICS, published 2026).

These binders were tested against T1, PSMA on LNCaP cells (human, UniProt Q04609 1-750) (assay: flow cytometry on LNCaP cells).
T1 construct: whole, on cells; also called LNCaP (PSMA+)
T1 sequence (Q04609 whole entry): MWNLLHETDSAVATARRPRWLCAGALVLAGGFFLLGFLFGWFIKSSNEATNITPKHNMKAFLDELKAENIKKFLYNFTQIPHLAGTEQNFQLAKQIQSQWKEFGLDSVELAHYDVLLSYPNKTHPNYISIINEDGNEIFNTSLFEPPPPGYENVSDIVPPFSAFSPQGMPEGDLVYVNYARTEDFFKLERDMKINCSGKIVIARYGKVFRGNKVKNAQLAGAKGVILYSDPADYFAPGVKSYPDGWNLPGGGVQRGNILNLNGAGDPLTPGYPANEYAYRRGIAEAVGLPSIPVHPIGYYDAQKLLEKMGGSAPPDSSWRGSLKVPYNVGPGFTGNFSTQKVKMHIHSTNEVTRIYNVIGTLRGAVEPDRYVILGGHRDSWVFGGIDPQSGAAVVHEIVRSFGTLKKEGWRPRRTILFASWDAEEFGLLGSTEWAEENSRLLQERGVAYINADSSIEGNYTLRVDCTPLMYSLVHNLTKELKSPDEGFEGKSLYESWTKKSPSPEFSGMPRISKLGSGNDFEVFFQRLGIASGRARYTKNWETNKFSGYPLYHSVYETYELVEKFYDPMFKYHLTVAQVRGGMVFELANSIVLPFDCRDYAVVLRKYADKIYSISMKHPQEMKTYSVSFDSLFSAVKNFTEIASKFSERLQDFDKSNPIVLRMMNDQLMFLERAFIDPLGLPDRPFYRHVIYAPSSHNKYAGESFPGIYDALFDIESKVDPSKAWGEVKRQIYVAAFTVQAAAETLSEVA

EC50	Binder
2.3 nM	C34-TYR (bispecific antibody, Biparatopic tandem of two anti-PSMA VHH) EVQLVESGGGLVQPGGSLTLSCAASRFMISEYSMHWVRQAPGKGLEWVSTINPYGTTDYAESVKGRFTISRDNAKNTLYLQMNSLKPEDTAVYYCDGYGYRGQGTQVTVSSGGGGSGGGGSGGGGSQVQLQESGGGSVEAGGSLRLSCARSGWPYSTYSMNWFRQAPGKEREAVAGISSTMSGIIFAESKAGQFTISQDNAKNTVYLQMNNLKPEDTAIYYCAARRYFSLSSSSDDFDYWGQGTQVTVSSAAAYPYDVPDYGSLPETGGSPSTPPTPSPSTPP
12.3 nM	C35-TYR (bispecific antibody, Tandem of two copies of the same VHH) QVQLQESGGGSVEAGGSLRLSCARSGWPYSTYSMNWFRQAPGKEREAVAGISSTMSGIIFAESKAGQFTISQDNAKNTVYLQMNNLKPEDTAIYYCAARRYFSLSSSSDDFDYWGQGTQVTVSSGGGGSGGGGSGGGGSQVQLQESGGGSVEAGGSLRLSCARSGWPYSTYSMNWFRQAPGKEREAVAGISSTMSGIIFAESKAGQFTISQDNAKNTVYLQMNNLKPEDTAIYYCAARRYFSLSSSSDDFDYWGQGTQVTVSSAAAYPYDVPDYGSLPETGGSPSTPPTPSPSTPP
> 500 nM	C24-101TYR (VHH) VHH: QVQLQESGGGSVEAGGSLRLSCARSGWPYSTYSMNWFRQAPGKEREAVAGISSTMSGIIFAESKAGQFTISQDNAKNTVYLQMNNLKPEDTAIYYCAARRYFSLSSSSDDFDYWGQGTQVTVSS

Each binder was assayed against T2, PSMA (commercial, Sino Bio cat #15877-H07H) (UniProt Q04609 44-750) (assay: SDS-PAGE, overnight 37C, ~7:1 sdAb:PSMA).
T2 construct: also called receptor
T2 sequence (Q04609 44-750 limits assumed): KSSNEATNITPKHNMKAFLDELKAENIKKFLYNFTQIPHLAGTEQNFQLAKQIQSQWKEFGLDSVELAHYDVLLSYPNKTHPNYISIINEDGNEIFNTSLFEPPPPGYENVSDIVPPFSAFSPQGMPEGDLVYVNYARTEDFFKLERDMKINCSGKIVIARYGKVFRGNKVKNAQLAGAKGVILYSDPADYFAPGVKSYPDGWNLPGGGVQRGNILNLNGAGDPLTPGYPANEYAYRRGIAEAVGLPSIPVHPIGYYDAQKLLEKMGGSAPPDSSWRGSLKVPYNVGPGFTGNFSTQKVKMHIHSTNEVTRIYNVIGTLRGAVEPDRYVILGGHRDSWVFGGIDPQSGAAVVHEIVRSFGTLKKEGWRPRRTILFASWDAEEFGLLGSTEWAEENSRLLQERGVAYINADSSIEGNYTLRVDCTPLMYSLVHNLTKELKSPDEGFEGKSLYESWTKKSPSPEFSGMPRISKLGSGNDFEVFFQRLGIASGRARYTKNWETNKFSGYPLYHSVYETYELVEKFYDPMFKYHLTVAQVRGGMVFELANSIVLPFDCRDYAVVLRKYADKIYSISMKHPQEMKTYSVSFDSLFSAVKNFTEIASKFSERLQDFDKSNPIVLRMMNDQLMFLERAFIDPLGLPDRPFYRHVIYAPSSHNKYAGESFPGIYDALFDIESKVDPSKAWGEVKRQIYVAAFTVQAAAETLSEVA

crosslinking efficiency	Binder
< 50%	C1-26FSY (VHH, not fully specified; FSY at 26, plus C-terminal His6) VHH: QVQLQESGGGSVQAGGSLRLSCTAPXYTDSNYYMSWFRQAPGKEREWVAGVNTGRGSTSYADSVKGRFTISQDNAKNTMFLQMNSLKPEDTAIYYCAVAACHFCDSLPKTQDEYILWGQGTQVTVSS
< 50%	C1-110FSY (VHH, not fully specified; FSY at 110, plus C-terminal His6) VHH: QVQLQESGGGSVQAGGSLRLSCTAPGYTDSNYYMSWFRQAPGKEREWVAGVNTGRGSTSYADSVKGRFTISQDNAKNTMFLQMNSLKPEDTAIYYCAVAACHFCDSLPKXQDEYILWGQGTQVTVSS
< 50%	C1-105FSY (VHH, not fully specified; FSY at 105, plus C-terminal His6) VHH: QVQLQESGGGSVQAGGSLRLSCTAPGYTDSNYYMSWFRQAPGKEREWVAGVNTGRGSTSYADSVKGRFTISQDNAKNTMFLQMNSLKPEDTAIYYCAVAACHFCXSLPKTQDEYILWGQGTQVTVSS
< 50%	C1-103FSY (VHH, not fully specified; FSY at 103, plus C-terminal His6) VHH: QVQLQESGGGSVQAGGSLRLSCTAPGYTDSNYYMSWFRQAPGKEREWVAGVNTGRGSTSYADSVKGRFTISQDNAKNTMFLQMNSLKPEDTAIYYCAVAACHXCDSLPKTQDEYILWGQGTQVTVSS
< 50%	C1-108FSY (VHH, not fully specified; FSY at 108, plus C-terminal His6) VHH: QVQLQESGGGSVQAGGSLRLSCTAPGYTDSNYYMSWFRQAPGKEREWVAGVNTGRGSTSYADSVKGRFTISQDNAKNTMFLQMNSLKPEDTAIYYCAVAACHFCDSLXKTQDEYILWGQGTQVTVSS
< 50%	C1-111FSY (VHH, not fully specified; FSY at 111, plus C-terminal His6) VHH: QVQLQESGGGSVQAGGSLRLSCTAPGYTDSNYYMSWFRQAPGKEREWVAGVNTGRGSTSYADSVKGRFTISQDNAKNTMFLQMNSLKPEDTAIYYCAVAACHFCDSLPKTXDEYILWGQGTQVTVSS
> 50%	C1-29FSY (VHH, not fully specified; FSY at 29, plus C-terminal His6) VHH: QVQLQESGGGSVQAGGSLRLSCTAPGYTXSNYYMSWFRQAPGKEREWVAGVNTGRGSTSYADSVKGRFTISQDNAKNTMFLQMNSLKPEDTAIYYCAVAACHFCDSLPKTQDEYILWGQGTQVTVSS
> 50%	C1-30FSY (VHH, not fully specified; FSY at 30, plus C-terminal His6) VHH: QVQLQESGGGSVQAGGSLRLSCTAPGYTDXNYYMSWFRQAPGKEREWVAGVNTGRGSTSYADSVKGRFTISQDNAKNTMFLQMNSLKPEDTAIYYCAVAACHFCDSLPKTQDEYILWGQGTQVTVSS
< 50%	C1-114FSY (VHH, not fully specified; FSY at 114, plus C-terminal His6) VHH: QVQLQESGGGSVQAGGSLRLSCTAPGYTDSNYYMSWFRQAPGKEREWVAGVNTGRGSTSYADSVKGRFTISQDNAKNTMFLQMNSLKPEDTAIYYCAVAACHFCDSLPKTQDEXILWGQGTQVTVSS
< 50%	C1-99FSY (VHH, not fully specified; FSY at 99, plus C-terminal His6) VHH: QVQLQESGGGSVQAGGSLRLSCTAPGYTDSNYYMSWFRQAPGKEREWVAGVNTGRGSTSYADSVKGRFTISQDNAKNTMFLQMNSLKPEDTAIYYCAVXACHFCDSLPKTQDEYILWGQGTQVTVSS
< 50%	C1-115FSY (VHH, not fully specified; FSY at 115, plus C-terminal His6) VHH: QVQLQESGGGSVQAGGSLRLSCTAPGYTDSNYYMSWFRQAPGKEREWVAGVNTGRGSTSYADSVKGRFTISQDNAKNTMFLQMNSLKPEDTAIYYCAVAACHFCDSLPKTQDEYXLWGQGTQVTVSS

Each binder was assayed against T2, PSMA (commercial, Sino Bio cat …) (assay: SDS-PAGE, lysate + PSMA, 3 h 37C).

crosslinking efficiency	Binder
< 50%	C3-107FSY (VHH, not fully specified; FSY at 107, plus C-terminal His6; tested as cell lysate) VHH: QVQLQESGGGSVEAGGSLRLSCARSGWPYSTYSMNWFRQAPGKEREAVAGISSTMSGIIFAESKAGQFTISQDNAKNTVYLQMNNLKPEDTAIYYCAARRDYSLSSXSDDFDYWGQGTQVTVSS
> 50%	C3-62FSY (VHH, not fully specified; FSY at 62, plus C-terminal His6; tested as cell lysate) VHH: QVQLQESGGGSVEAGGSLRLSCARSGWPYSTYSMNWFRQAPGKEREAVAGISSTMSGIIFAXSKAGQFTISQDNAKNTVYLQMNNLKPEDTAIYYCAARRDYSLSSSSDDFDYWGQGTQVTVSS
< 50%	C3-103FSY (VHH, not fully specified; FSY at 103, plus C-terminal His6; tested as cell lysate) VHH: QVQLQESGGGSVEAGGSLRLSCARSGWPYSTYSMNWFRQAPGKEREAVAGISSTMSGIIFAESKAGQFTISQDNAKNTVYLQMNNLKPEDTAIYYCAARRDYXLSSSSDDFDYWGQGTQVTVSS
< 50%	C3-101FSY (VHH, not fully specified; FSY at 101, plus C-terminal His6) VHH: QVQLQESGGGSVEAGGSLRLSCARSGWPYSTYSMNWFRQAPGKEREAVAGISSTMSGIIFAESKAGQFTISQDNAKNTVYLQMNNLKPEDTAIYYCAARRXYSLSSSSDDFDYWGQGTQVTVSS
> 50%	C3-58FSY (VHH, not fully specified; FSY at 58, plus C-terminal His6; tested as cell lysate) VHH: QVQLQESGGGSVEAGGSLRLSCARSGWPYSTYSMNWFRQAPGKEREAVAGISSTMSGXIFAESKAGQFTISQDNAKNTVYLQMNNLKPEDTAIYYCAARRDYSLSSSSDDFDYWGQGTQVTVSS

These binders were tested against PSMA on PC3pip cells (UniProt Q04609 1-750, limits assumed) (assay: cell-based or functional assay).
PSMA on PC3pip cells, sequence (Q04609 whole entry): as the sequence (Q04609 whole entry) above

Binder	IC50 PC3pip (M), cell viability by CellTiter-Glo after 4 days
C26-54TYR (VHH, MC-PEG8-VC-PABC-MMAE on the C-terminal Cys (DAR 1)) VHH: EVQLVESGGGLVQPGGSLTLSCAASRFMISEYSMHWVRQAPGKGLEWVSTINPYGTTDYAESVKGRFTISRDNAKNTLYLQMNSLKPEDTAVYYCDGYGYRGQGTQVTVSS	3.36e-09 M
C28-101TYR (VHH, MC-PEG8-VC-PABC-MMAE on the C-terminal Cys) VHH: QVQLQESGGGSVEAGGSLRLSCARSGWPYSTYSMNWFRQAPGKEREAVAGISSTMSGIIFAESKAGQFTISQDNAKNTVYLQMNNLKPEDTAIYYCAARRYFSLSSSSDDFDYWGQGTQVTVSS	8.47e-08 M

The binders below were run against T2, PSMA (commercial, Sino Bio cat …) (assay: SDS-PAGE, 37C, ~8:1 sdAb:PSMA).

crosslinking efficiency	Binder
< 50%	C2-100FSY (VHH, not fully specified; FSY at 100, plus C-terminal His6) VHH: EVQLVESGGGLVQPGGSLTLSCAASRFMISEYSMHWVRQAPGKGLEWVSTINPAGTTDYAESVKGRFTISRDNAKNTLYLQMNSLKPEDTAVYYCDGYGXRGQGTQVTVSS
> 50%	C2-58FSY (VHH, not fully specified; FSY at 58, plus C-terminal His6) VHH: EVQLVESGGGLVQPGGSLTLSCAASRFMISEYSMHWVRQAPGKGLEWVSTINPAGTTXYAESVKGRFTISRDNAKNTLYLQMNSLKPEDTAVYYCDGYGYRGQGTQVTVSS
< 50%	C2-56FSY (VHH, not fully specified; FSY at 56, plus C-terminal His6) VHH: EVQLVESGGGLVQPGGSLTLSCAASRFMISEYSMHWVRQAPGKGLEWVSTINPAGXTDYAESVKGRFTISRDNAKNTLYLQMNSLKPEDTAVYYCDGYGYRGQGTQVTVSS

Second part, the binder before the results:

Binder	crosslinking efficiency
C2-50FSY (VHH, not fully specified; FSY at 50, plus C-terminal His6) VHH: EVQLVESGGGLVQPGGSLTLSCAASRFMISEYSMHWVRQAPGKGLEWVSXINPAGTTDYAESVKGRFTISRDNAKNTLYLQMNSLKPEDTAVYYCDGYGYRGQGTQVTVSS	> 50%
C2-53FSY (VHH, not fully specified; FSY at 53, plus C-terminal His6) VHH: EVQLVESGGGLVQPGGSLTLSCAASRFMISEYSMHWVRQAPGKGLEWVSTINXAGTTDYAESVKGRFTISRDNAKNTLYLQMNSLKPEDTAVYYCDGYGYRGQGTQVTVSS	> 50%
